Results: US20090074762A1 (PDL BIOPHARMA, published 2009)
Residue numbers refer to the chain shown, from its start.

T1: TweakR on cells (TweakR-expressing cells, TweakR transfectant cell line, A375 melanoma cells, tumor tissue) (human, UniProt Q9NP84 28-129)
T1 sequence: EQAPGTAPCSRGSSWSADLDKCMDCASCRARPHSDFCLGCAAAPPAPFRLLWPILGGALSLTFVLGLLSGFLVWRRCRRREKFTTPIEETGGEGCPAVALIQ

T2: soluble form of the extracellular domain of human TweakR (human, UniProt Q9NP84 28-80)
T2 construct: also called soluble TweakR extracellular domain
T2 sequence: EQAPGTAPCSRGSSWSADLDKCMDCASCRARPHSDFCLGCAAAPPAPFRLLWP

T3: mouse TweakR (mouse, UniProt Q9CR75 28-80, limits assumed)
T3 construct: also called mouse TweakR protein
T3 sequence (looked up): T2 sequence with A7S, R11S, R29P, P47H

B1: murine anti-TweakR antibody 19.2.1 (antibody, mouse IgG2a, V domains shown)
VH: EVKLEESGGGLVQPGGSMKLSCVASGFTFSSYWMSWVRQSPEKGLEWVAEIRLKSDNYATHYAESVKGKFTISRDDSKSRLYLQMNSLRAEDTGIYYCTGYYADAMDYWGQGTSVTVSS
VL: DIVLTQSPASLAVSLGQRATISCRASQSVSTSSYSYMHWYQQKPGQPPKLLIKYASNLESGVPARFSGSGSGTDFTLNIHPVEEEDTATYYCQHSWEIPYTFGGGTKLEIK
B2: murine anti-TweakR antibody ITEM-1 (antibody, V domains shown)
VH: EVKLEESGGGLVQPGGSMKLSCVASGFSFSNYWMNWVRQSPEKGLEWVAEIRLKSNNYATHYAESVKGRFTISRHDSKSSVYLQMNNLRAEDTGIYYCTRAYADYFDYWGQGTTLTVSS
VL: DIVLTQSPASLVVSLGQRATISCRASQSVSTSTYSYMHWYQQKPGQPPKILIKYASNLESGVPARFSGSGSGTDFTLNIHPVEEEDTATYYCQHSWEIPYTFGGGTKLEIKR
B3: murine anti-TweakR antibody ITEM-3 (antibody, V domains shown)
VH: EVKLEESGGGLVQPGGSMKLSCVVSGLTFSRYWMSWVRQSPEKGLEWVAEIRVKSDNYATTHYAESVKGKFTVSRDDSKSRLYLQMSSLRPEDTGIYYCIGYYADAMDYWGQGTSVTVSS
VL: B2 VL with T33S, I50L, N57K, E59D, Y100W, L108M
B4: murine anti-TweakR antibody 136.1 (antibody, V domains shown)
VH: EVKLEESGGGLVQPGGSMKLSCVASGFTFNNYWMSWVRQSPEKGLEWLAEIRLKSDNYATHYAESVKGKFTISRDDSKSRLYLQMNNLRAENTGIYYCTGGFADYFDYWGQGTTLTVSS
VL: B2 VL with V12T, T33S, H38Q, K43R, I50L, S56T, E59D, T87A
notes: Mouse monoclonal antibody
B5: murine anti-TweakR antibody 18.3.3 (antibody, V domains shown)
VH: EVKLGESGGGLVQPGGSMKLSCVASGFPFTKYWMNWVRQSPEKGLEWVAEIRLKSDNYATHYAESAKGRFTISRDDSRSSVYLQMNNLRAEDTAIYYCSPTYADTMDYWGQGTSVTVSS
VL: B2 VL with V12A, R24K, H38Q, K43R, P47S, I50L, N57K, E59D, I98L, K107R
notes: Mouse monoclonal antibody
B6: humanized anti-TweakR antibody PDL192 (antibody, human IgG1, V domains shown)
VH: EVQLVESGGGLVQPGGSLRLSCAASGFTFSSYWMSWVRQAPGKGLEWVAEIRLKSDNYATHYAESVKGRFTISRDDSKNSLYLQMNSLRAEDTAVYYCTGYYADAMDYWGQGTLVTVSS
VL: DIQMTQSPSSLSASVGDRVTITCRASQSVSTSSYSYMHWYQQKPGKAPKLLIKYASNLESGVPSRFSGSGSGTDFTLTISSLQPEDFATYYCQHSWEIPYTFGGGTKVEIK
B7: humanized anti-TweakR antibody PDL400 (antibody, V domains shown)
VH: QVQLVQSGAEVKKPGASVKISCKVSGYTFTDFIIAWVKQAPGKGLEWIGEIYPGTGRTYYSEKFRGKATLTADKSTSTAYMELSSLRSEDTAVYYCARRTIYYDYDGDYWGQGTTVTVSS
VL: DIVMTQSPLSLPVTPGEPASISCRSSKSLLHSNGITYLYWYLQKPGQSPQLLIYQMSNLASGVPDRFSSSGSGTDFTLKISRVEAEDVGVYYCAHNLELPWTFGGGTKVEIK
notes: constant regions not expressly stated

Target: T1, TweakR on cells (TweakR-expressing …)
Assay: cell-based or functional assay

Binder	agonist activity (IL-8 release assay) [%]
B1	~39
B2	~25
B3	~37
B4	~278
B5	~14
B6	~25
B7	~8

Target: T2, soluble form of the extracellular …
Assay: Biacore; antibody captured by immobilized anti-Fc, soluble TweakR extracellular domain injected
Protocol: The relative binding affinities of various mouse and humanized anti-TweakR antibodies were assessed in a Biacore assay using a soluble form of the extracellular domain of human TweakR. Briefly, goat anti-mouse Fc antibody or goat anti-human Fc was first immobilized to the biosensor surface followed by capture of antibody on the test surface. Subsequently, the soluble form of the extracellular domain of human TweakR was injected to measure binding to, and dissociation from, antibody.

Binder	Kd [nM]
B1	7.12
B4	0.68
B5	0.23
B7	0.58

Target: human TweakR (R56P) (human, UniProt Q9NP84 28-80, limits assumed)
Assay: binding assay read as OD650, single bar per antibody and target; format and antibody concentration not given

Binder	binding result
B5	binds

Target: T3, mouse TweakR
Assay: as above

Binder	binding result
B5	binds
